Measurements from paper doi:10.1101/2022.03.31.486524.

Legend:
[1] = biological target: CelTOS N-terminal truncation mutant (Gly51-Asp196) (Plasmodium vivax); experiment: SEC
[2] = biological target: CelTOS double mutant Lys122Asp, Leu164Asp (Plasmodium vivax); experiment: SEC
[3] = biological target: Disulfide-locked CelTOS dimer (Ser55Cys, Ala123Cys) (Plasmodium vivax); experiment: cross-linking

CelTOS N-terminal truncation mutant (Gly51-Asp196) (domain or fragment)
stoichiometry N [1]: 2

CelTOS double mutant Lys122Asp, Leu164Asp (natural protein)
stoichiometry N [2]: 2

Disulfide-locked CelTOS dimer (Ser55Cys, Ala123Cys) (natural protein)
precursor abundance of cross-linked species [3]: 70%
stoichiometry N [3]: 2
